Results published in patent publication US20120269822A1 (published 2012).

Columns and labels:
[1] = molecular target: T1, BoNT/A Lc448, truncated botulinum neurotoxin serotype A light chain containing residues 1-448 (Clostridium botulinum, UniProt P0DPI0 1-448); assay: flow cytometry, yeast-displayed VHH titrated with soluble BoNT/A Lc448
T1 construct: range 1-448

[2] = molecular target: T1, BoNT/A Lc448, truncated botulinum …; assay: KinExA flow fluorimetry, solution kinetics, purified Aa1 VHH and BoNT/A Lc448
[3] = molecular target: T1, BoNT/A Lc448, truncated botulinum …
[4] = molecular target: T1, BoNT/A Lc448, truncated botulinum …; assay: KinExA; calculated as KD × kon
[5] = molecular target: T1, BoNT/A Lc448, truncated botulinum …; assay: KinExA flow fluorimetry, solution equilibrium, purified Aa1 VHH and BoNT/A Lc448

T1 sequence (P0DPI0 1-448 limits assumed): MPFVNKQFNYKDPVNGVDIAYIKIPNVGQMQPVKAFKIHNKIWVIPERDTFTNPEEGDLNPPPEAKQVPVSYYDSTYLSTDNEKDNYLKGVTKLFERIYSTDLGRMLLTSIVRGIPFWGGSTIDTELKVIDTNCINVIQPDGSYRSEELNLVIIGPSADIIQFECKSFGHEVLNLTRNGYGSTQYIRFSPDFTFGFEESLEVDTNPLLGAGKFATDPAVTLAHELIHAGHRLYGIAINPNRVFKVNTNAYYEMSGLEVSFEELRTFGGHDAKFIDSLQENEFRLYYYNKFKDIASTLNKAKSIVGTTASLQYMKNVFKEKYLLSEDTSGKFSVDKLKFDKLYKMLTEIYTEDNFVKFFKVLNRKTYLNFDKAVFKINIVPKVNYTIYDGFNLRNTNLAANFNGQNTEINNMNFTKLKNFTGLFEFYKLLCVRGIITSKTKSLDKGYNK

| Binder | Kd [1] | other results |
| --- | --- | --- |
| Aa8 VHH (VHH) VHH: AVQLVESGGGLVQAGDSLRLSCTLSGGTFRHYAMSWFRQAPGKERVFVARIDYDGAMKYYADSVKGRFTISRDNAKNTMYLQMNSLKPEDTAVYYCNAHWDYGLGPEWDYWGQGTLVTVSS | 112 nM |  |
| Aa11 VHH (VHH) VHH: QVQLVESGGGLVQAGGSLRLSCAASGRTFSSYAMGWFRQAPGKEREFVAAISWSGGSTYYADSVKGRFTISRDDARNTVTLLMNSLKPEDTAVYFCNAWSLEEQYWGQGTQVTVSS | 76.1 nM |  |
| Aa6 VHH (VHH) VHH: AVQLVESGGGLVASGGSLRLSCAASDFKFSDYWMHWIRQAPGKEREFVASIGWNGEITDYEESIEGRFAISRDNNKYTLYLEMRDLIPEDTGLYYCAASSDYRWSRQPFEFENWGQGTQVTVSS | 0.52 nM |  |
| A26 VHH (VHH) VHH: DVQLVESGGGLVQPGGSLRLSCVVSGLTSTEYAIGWFRQAPGKEREGVACLVVSGHNSGRTHYSAAVKGRFTVSQDDATNTAILHMDNLQPKDTAVYYCAAEVSSGQPAVTTFWEDMYDYWGQGTQVTVSS | 8.7 nM |  |
| A23 VHH (VHH) VHH: AVQLVESGGGAVSPGGSLKLSCTASGLAFNGGAMGSEHRLTAGAMGWFRQAPGKDREFVAAIHPRTNDTYYSGTLEDRFTISIDDAKMTVYLQADSLRLEDTAVYSCAADEDVTPRGMGVIPYAEYWGQGTQVTVSS | 16.9 nM |  |
| A21 VHH (VHH) VHH: QVQLVESGGGVVQAGGSLRLSCVASGFTIDDYPVAWFRQAPGKEREAVSCIGNRGGTTYYADSVKGRFSISRDDAKDTVYLQMNNLKSEDTAVYYCVKDLGSVGPGAEYDYWGQGTLVTVSS | 60.7 nM |  |
| Aa9 VHH (VHH) VHH: QVQLVESGGGMVQPGGSLRLSCKGSGSVFMFYDMGWYRQAPGNQRELVAVMGPGGNTNYADAVKGRFTVARNIDEDTVSLLMTNLEPEDTAVYYCAADFDTPWGASGRYDYWGQGTQVTVSS | 4.08 nM |  |
| A19 VHH (VHH) VHH: EVQLVESGGGLVQPGGSLRLSCAASGFTFSGSAMSWVRQTPGKGLEWVSFISRSGSVTEYADSVKGRFTIARDNAPNTVYLQMNSLKPEDTAVYYCTADSYVDYEDDRLKWHHSWGQGTQVTVSS | 4.65 nM |  |
| Aa1 VHH (VHH) VHH: AVQLVDSGGGTLQAGKSLRLSCAISGLAFDGGAMGSEHRLTAGAMGWFRQAPGKDREFVAAISPRTDETYYAESLEGRFSVSRDAAATMVFLEADNVRLDDTASYYCAADEDVTPRVMGVIPHADHWGQGTLVTVSS | 0.03 nM | kon [2]: 4.39e+07 M⁻¹ s⁻¹; IC50 (read off the curve) [3]: ~0.1 nM; koff [4]: 0.00666 s⁻¹; Kd [5]: 0.147 nM |
